In series [1] the target is T1, human PPARγ DBD-LBD (amino acids 101–468) (Homo sapiens (Human), UniProt P37231-2).
T1 chain: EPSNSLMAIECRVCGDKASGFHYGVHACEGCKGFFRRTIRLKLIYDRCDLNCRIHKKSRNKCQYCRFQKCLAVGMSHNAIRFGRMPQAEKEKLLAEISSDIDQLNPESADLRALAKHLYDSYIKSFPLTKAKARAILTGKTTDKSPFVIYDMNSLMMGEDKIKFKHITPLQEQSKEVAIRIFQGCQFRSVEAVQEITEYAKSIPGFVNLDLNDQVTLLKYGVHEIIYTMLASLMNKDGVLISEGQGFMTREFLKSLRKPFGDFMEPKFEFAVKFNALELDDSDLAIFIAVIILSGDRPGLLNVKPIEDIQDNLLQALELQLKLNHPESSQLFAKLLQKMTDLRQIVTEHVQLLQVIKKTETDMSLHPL
The series can be described thus: SEC, SAXS, H/D exchange MS.

For series [2], the target named is T2, human PPARγ LBD (amino acids 204–477) (Homo sapiens (Human), UniProt P37231-2).
T2 chain: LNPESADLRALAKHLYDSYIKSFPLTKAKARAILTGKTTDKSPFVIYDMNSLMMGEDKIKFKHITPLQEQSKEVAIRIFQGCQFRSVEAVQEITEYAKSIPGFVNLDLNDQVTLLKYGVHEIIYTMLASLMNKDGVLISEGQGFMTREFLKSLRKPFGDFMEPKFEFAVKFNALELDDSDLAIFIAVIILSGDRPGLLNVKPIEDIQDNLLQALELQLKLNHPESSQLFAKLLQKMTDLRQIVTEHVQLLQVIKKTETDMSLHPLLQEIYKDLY
The experiment in a line: SEC, native PAGE, DLS, SAXS.

Series [3] deals with the molecule itself. The experiment in a line: dynamic light scattering; DLS after gel filtration; hPPARγ LBD at different concentrations. (Size exclusion chromatography separates by hydrodynamic size, large species first.)
Series [4] concerns the molecule itself. The series can be described thus: native gel or EMSA; native polyacrylamide gel electrophoresis after gel filtration; RH from band mobility; hPPARγ LBD at 1 to 20 mg/mL.
In series [5] the target is T3, human PPARγ LBD (amino acids 204–477) (human, UniProt P37231-2 204-477).
T3 construct: Cloned in pET28a(+); His-tag removed with thrombin; also called hPPARγ LBD; PPAR LBD
T3 sequence (looked up): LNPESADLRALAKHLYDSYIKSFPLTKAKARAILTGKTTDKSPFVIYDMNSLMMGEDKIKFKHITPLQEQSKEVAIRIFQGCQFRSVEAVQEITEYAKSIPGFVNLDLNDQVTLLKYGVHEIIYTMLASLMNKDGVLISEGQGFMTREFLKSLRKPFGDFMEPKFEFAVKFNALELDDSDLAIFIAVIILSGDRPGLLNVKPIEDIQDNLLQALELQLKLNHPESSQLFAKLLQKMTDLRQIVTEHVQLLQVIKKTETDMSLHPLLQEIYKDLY
The series can be described thus: SEC; analytical gel filtration, Superdex 75 HR 10/30 (LBD constructs) or Superdex 200 HR 10/30 (DBD-LBD constructs); 20 mM Hepes-Na pH 8.0, 3 mM dithiothreitol, 200 mM NaCl, 5% glycerol; heterodimers formed from 20 mg/mL of each protein, 1:1 molar, 1 h at 4°C; RH from calibration standards. Particulars: both partners purified.

Series [6] deals with the molecule itself. The description is as above.

Where “and” joins values, the source holds several entries; their conditions need not be identical. Identical values can stand only once.

This note sets out measurements from article PMC3283691, “Low-Resolution Molecular Models Reveal the Oligomeric State of the PPAR and the Conformational Organization of Its Domains in Solution” (PLoS ONE, 2012).

One may read the stoichiometry N as a count of units in the complex or per binding partner.

B1: human RXRα DBD-LBD (amino acids 135–462) (protein)
chain: CAICGDRSSGKHYGVYSCEGCKGFFKRTVRKDLTYTCRDNKDCLIDKRQRNRCQYCRYQKCLAMGMKREAVQEERQRGKDRNENEVESTSSANEDMPVERILEAELAVEPKTETYVEANMGLNPSSPNDPVTNICQAADKQLFTLVEWAKRIPHFSELPLDDQVILLRAGWNELLIASFSHRSIAVKDGILLATGLHVHRNSAHSAGVGAIFDRVLTELVSKMRDMQMDKTELGCLRAIVLFNPDSKGLSNPAEVEALREKVYASLEAYCKHKYPEQPGRFAKLLLRLPALRSIGLKCLEHLFFFKLIGDTPIDTFLMEMLEAPHQMT
Turning to B1, the binding result in series [1] is recorded as “binds”.

B2: human RXRα LBD (amino acids 225–462) (domain or fragment, UniProt P19793 225-462, looked up)
chain: SANEDMPVERILEAELAVEPKTETYVEANMGLNPSSPNDPVTNICQAADKQLFTLVEWAKRIPHFSELPLDDQVILLRAGWNELLIASFSHRSIAVKDGILLATGLHVHRNSAHSAGVGAIFDRVLTELVSKMRDMQMDKTELGCLRAIVLFNPDSKGLSNPAEVEALREKVYASLEAYCKHKYPEQPGRFAKLLLRLPALRSIGLKCLEHLFFFKLIGDTPIDTFLMEMLEAPHQMT
notes: Cloned in pET28a(+); also called hRXRα LBD
As for B2, the binding result in series [2] and in series [5] was “binds” throughout. The “stoichiometry N” value in series [3] was 4 and 2; in series [4] it was 4 and 2; in series [6], 2 and 4.
